Here are results for 16 molecules from US20250304690A1 (HANGZHOU VIROMAB BIOTECH, published 2025).

Where a chain is given by its changes, count along the chain named.

The labels stand for the following.
B1: TT3 Ab-2 (antibody, human IgG1, kappa, V domains shown)
VH: QVQLVQSGAEVKKPGASVKVSCKASGYTFTNYYMKWVKQAPGQSLEWIGDLNPNNGDTFYNQKFKGRVTITVDKSASTAYMELNSLRSEDTAVYYCARTGRYEENAMDYWGQGTLVTVSS
VL: DLVMTQSPASLAVSPGQRATITCRASESVDSYGKSFMHWYQQKPGQPPKLLIYRASNLESGVPARFSGSGSRTDFTLTINPVEANDTANYYCQQNNEDPWTFGQGTKLEIKR
notes: also called humanized anti-TT3 monoclonal antibody
B2: TT3 Ab-3 (antibody, human IgG1, kappa)
heavy: not shown
light: DLVMTQSPASLAVSPGQRATITCRASESVDSYGKSFMHWYQLKPGQPPKLLIYRASNLESGVPARFSGSGSRTDFTLTINPVEANDTANYYCQQNNEDPWTFGQGTKLEIKRTVAAPSVFIFPPSDEQLKSGTASVVCLLNNFYPREAKVQWKVDNALQSGNSQESVTEQDSKDSTYSLSSTLTLSKADYEKHKVYACEVTHQGLSSPVTKSFNRGEC
notes: as for B1
B3: TT3 Ab-1 (antibody, human IgG1, kappa, V domains shown)
VH: B1 VH with S44R, I48M, N84S
VL: B1 VL with L2I, M4L
notes: as for B1
B4: BK-D-06 (bispecific antibody, human IgG1, kappa)
heavy: QVQLVQSGAEVKKPGASVKVSCKASGYTFTNYYMKWVKQAPGQRLEWMGDLNPNNGDTFYNQKFKGRVTITVDKSASTAYMELSSLRSEDTAVYYCARTGRYEENAMDYWGQGTLVTVSSASTKGPSVFPLAPSSKSTSGGTAALGCLVKDYFPEPVTVSWNSGALTSGVHTFPAVLQSSGLYSLSSVVTVPSSSLGTQTYICNVNHKPSNTKVDKRVEPKSCDKTHTCPPCPAPEFEGGPSVFLFPPKPKDTLMISRTPEVTCVVVDVSHEDPEVKFNWYVDGVEVHNAKTKPREEQYNSTYRVVSVLTVLHQDWLNGKEYKCKVSNKALPASIEKTISKAKGQPREPQVYTLPPSREEMTKNQVSLTCLVKGFYPSDIAVEWESNGQPENNYKTTPPVLDSDGSFFLYSKLTVDKSRWQQGNVFSCSVMHEALHNHYTQKSLSLSPGKGGGGSGGGGSGGGGSQAVVTQEPSLTVSPGGTVTLTCRSSTGAVTTSNYANWVQEKPGQAPRGLIGGTNKRAPWVPARFSGSLLGDKAALTLSGAQTEDEAEYYCALWYSNLWVFGGGTKLTVLGGGGSGGGGSGGGGSEVQLVESGGGLVQPGGSLRLSCAASGFTFNTYAMNWVRQAPGKGLEWVARIRSKYNNYATYYADSVKDRFTISRDDSKNILYLQMNSLKTEDTAVYYCVRHGNFGNSYVSWFAYWGQGTLVTVSA
light: B2 light with L2I, M4L, L42Q
B5: BK-D-10 (bispecific antibody, human IgG1, kappa)
heavy: QVQLVQSGAEVKKPGASVKVSCKASGYTFTNYYMKWVKQAPGQSLEWIGDLNPNNGDTFYNQKFKGKATLTVDKSASTAYMELNSLRSEDTAVYYCARTGRYEENAMDYWGQGTLVTVSSASTKGPSVFPLAPSSKSTSGGTAALGCLVKDYFPEPVTVSWNSGALTSGVHTFPAVLQSSGLYSLSSVVTVPSSSLGTQTYICNVNHKPSNTKVDKRVEPKSCDKTHTCPPCPAPEFEGGPSVFLFPPKPKDTLMISRTPEVTCVVVDVSHEDPEVKFNWYVDGVEVHNAKTKPREEQYNSTYRVVSVLTVLHQDWLNGKEYKCKVSNKALPASIEKTISKAKGQPREPQVYTLPPSREEMTKNQVSLTCLVKGFYPSDIAVEWESNGQPENNYKTTPPVLDSDGSFFLYSKLTVDKSRWQQGNVFSCSVMHEALHNHYTQKSLSLSPGKGGGGSGGGGSGGGGSQAVVTQEPSLTVSPGGTVTLTCRSSTGAVTTSNYANWVQQKPGQAPRGLIGGTNKRAPWTPARFSGSLLGGKAALTLSGAQPEDEAEYYCALWYSNLWVFGGGTKLTVLGGGGSGGGGSGGGGSEVQLVESGGGLVQPGGSLRLSCAASGFTFNTYAMNWVRQAPGKGLEWVARIRSKYNNYATYYADSVKDRFTISRDDSKNSLYLQMNSLKTEDTAVYYCVRHGNFGNSYVSWFAYWGQGTLVTVSA
light: B2 light
B6: BK-D-12 (bispecific antibody, human IgG1, kappa)
heavy: B4 heavy with E505Q, V525T, D536G, T547P, V684M
light: B2 light
B7: BK-D-07 (bispecific antibody, human IgG1, kappa)
heavy: B5 heavy with S669I, V684M
light: B2 light with L2I, M4L, L42Q
B8: BK-D-11 (bispecific antibody, human IgG1, kappa)
heavy: B4 heavy with E505Q, V525T, D536G, T547P, I669S
light: B2 light with L2I, M4L, L42Q
B9: Ab-TT3 (antibody, V domains shown)
VH: EVQLEQSGPELVKPGASVKMSCKASGYTFTNYYMKWVKQSHGKSLEWIGDLNPNNGDTFYNQKFKGKATLTVDKSSNTAYMQLNSLTSEDSAVYYCARTGRYEENAMDYWGQGTSVTVSS
VL: ELVMTQSPASLAVSLGQRATISCRASESVDSYGKSFMHWYQLKPGQPPKLLIYRASNLESGVPARFSGSGSRTDFTLTIDPVEADDAATYYCQQNNEDPWTFGGGTKLEIK
notes: also called anti-Strep tag II antibody before humanization
B10: BK-B-110-hu2 (bispecific antibody)
chain: ELVMTQSPASLAVSLGQRATISCRASESVDSYGKSFMHWYQLKPGQPPKLLIYRASNLESGVPARFSGSGSRTDFTLTIDPVEADDAATYYCQQNNEDPWTFGGGTKLEIKGSTSGSGKPGSGEGSTKGEVQLEQSGPELVKPGASVKMSCKASGYTFTNYYMKWVKQSHGKSLEWIGDLNPNNGDTFYNQKFKGKATLTVDKSSNTAYMQLNSLTSEDSAVYYCARTGRYEENAMDYWGQGTSVTVSSPCPAPEFEGGPSVFLFPPKPKDTLMISRTPEVTCVVVDVSHEDPEVKFNWYVDGVEVHNAKTKPREEQYNSTYRVVSVLTVLHQDWLNGKEYKCKVSNKALPASIEKTISKAKGQPREPQVYTLPPSREEMTKNQVSLTCLVKGFYPSDIAVEWESNGQPENNYKTTPPVLDSDGSFFLYSKLTVDKSRWQQGNVFSCSVMHEALHNHYTQKSLSLSPGKGGGGSGGGGSGGGGSQAVVTQEPSLTVSPGGTVTLTCRSSTGAVTTSNYANWVQQKPGQAPRTLIGGTNKRAPWVPARFSGSLLGDKAALTLSGAQPEDEAEYYCALWYSNLWVFGGGTKLTVLGGGGSGGGGSGGGGSEVQLVESGGGLVQPGGSLRLSCAASGFTFNTYAMNWVRQAPGKGLEWVARIRSKYNNYATYYADSVKDRFTISRDDSKNILYLQMNSLKTEDTAVYYCVRHGNFGNSYVSWFAYWGQGTLVTVSA
B11: BK-B-110-hu1 (bispecific antibody)
chain: B10 chain with V544T, D555G
B12: BK-B-110-hu3 (bispecific antibody)
chain: B10 chain with Q524E
B13: BK-B-110-hu6 (bispecific antibody)
chain: B10 chain with Q524E, V703M
B14: BK-B-110-hu5 (bispecific antibody)
chain: B10 chain with V703M
B15: BK-B-110-hu4 (bispecific antibody)
chain: B10 chain with V544T, D555G, V703M
B16: BK-B-110 (bispecific antibody)
chain: ELVMTQSPASLAVSLGQRATISCRASESVDSYGKSFMHWYQLKPGQPPKLLIYRASNLESGVPARFSGSGSRTDFTLTIDPVEADDAATYYCQQNNEDPWTFGGGTKLEIKGSTSGSGKPGSGEGSTKGEVQLEQSGPELVKPGASVKMSCKASGYTFTNYYMKWVKQSHGKSLEWIGDLNPNNGDTFYNQKFKGKATLTVDKSSNTAYMQLNSLTSEDSAVYYCARTGRYEENAMDYWGQGTSVTVSSPCPAPEFEGGPSVFLFPPKPKDTLMISRTPEVTCVVVDVSHEDPEVKFNWYVDGVEVHNAKTKPREEQYNSTYRVVSVLTVLHQDWLNGKEYKCKVSNKALPASIEKTISKAKGQPREPQVYTLPPSREEMTKNQVSLTCLVKGFYPSDIAVEWESNGQPENNYKTTPPVLDSDGSFFLYSKLTVDKSRWQQGNVFSCSVMHEALHNHYTQKSLSLSPGKGGGGSGGGGSGGGGSQAVVTQESALTTSPGETVTLTCRSSTGAVTTSNYANWVQEKPDHLFTGLIGGTNKRAPGVPARFSGSLIGDKAALTITGAQTEDEAIYFCALWYSNLWVFGGGTKLTVLGGGGSGGGGSGGGGSEVKLLESGGGLVQPKGSLKLSCAASGFTFNTYAMNWVRQAPGKGLEWVARIRSKYNNYATYYADSVKDRFTISRDDSQSILYLQMNNLKTEDTAMYYCVRHGNFGNSYVSWFAYWGQGTLVTVSA

For the first assay, the target named is TT3 labeling polypeptide on cells. Nature of the assay: flow cytometry on MC38-TT3 cells.
TT3 labeling polypeptide on cells, sequence (P01732 other isoform, or with tags, fused parts or gaps limits assumed): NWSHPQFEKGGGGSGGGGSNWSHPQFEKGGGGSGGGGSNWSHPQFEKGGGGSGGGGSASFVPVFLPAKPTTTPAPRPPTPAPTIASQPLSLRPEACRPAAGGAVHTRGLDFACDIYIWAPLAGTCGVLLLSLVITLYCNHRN
The molecule B1 had an EC50 of 2.33 nM. The same measure, in the same setting: the same measure for B2: 0.588 nM; for B3: 1.2 nM.

The target is the same in another assay. Description: flow cytometry on SK-HEP-1-TT3 cells.
In the case of B1, the EC50 came to 1.53 nM. On the same count and under the same terms, the same measure for B2: 0.738 nM. Take B3: the midpoint of the response, the EC50, lay at 0.546 nM.

The target is the same in a further assay. Description: flow cytometry on HCT116-TT3 cells.
For B4, it took 0.908 nM to reach a half-maximal effect (EC50). On the same count and under the same terms, for B5 the value was 0.248 nM; for B6, 0.523 nM. Still for that read-out and setting: the same measure for B7: 0.127 nM; for B8: 0.336 nM.

For another assay, the target named is TT3 antigen (ELISA coating antigen). Nature of the assay: ELISA, plate-coated TT3 antigen. In general terms: An ELISA detects its analyte on a solid surface through an enzyme-linked reagent.
Experimental: The activity of the prepared humanized antibodies was assessed by ELISA as follows: The TT3 antigen was diluted to 0.5 g/mL using a coating solution and added to a 96-well plate at 100 L/well, and the plate was incubated overnight at 4° C. The plate was washed with PBST. Then 200 μL of an antibody blocking solution was added to each well, and blocking was performed at 37° C. for 2 h. The plate was washed with PBST. Different antibodies (initial concentration: 100 nM; serially diluted in a 1:6 ratio) were added at 100 L/well, and the plate was incubated at 37° C. for 2 h. The plate was washed with PBST. An HRP-bound goat anti-human/mouse IgG antibody was added at 100 μL/well, and the plate was incubated at 37° C. for 1 h. The plate was washed with PBST, and TMB was added at 100 L/well. Color development was performed at 37° C. for 10-20 min, and 50 µL of 2 M sulfuric acid was added to each well to stop the reaction. OD readings were taken at a wavelength of 450 nm.
Regarding B9, the EC50 worked out at 0.0878 nM. Molecule B1 returned an EC50 of 0.0105 nM.

As for B2, the EC50 is 0.014 nM. The same measure, in the same setting: for B3 the value was 0.0104 nM.

A further assay deals with TT3 labeling polypeptide on cells. Nature of the assay: flow cytometry (as for Table 1). For orientation: Flow cytometry measures light scatter and fluorescence of single cells or particles in a stream.
As to B10, the binding result is on record as “binds”. The same measure, in the same setting: the same measure for B11: “binds”. On the same count and under the same terms, the same measure for B12: “binds”; for B13: “binds”. In the case of B14, the binding result was “binds”. Same read-out and setting: for B15 the value was “binds”; for B16, “binds”.

Another assay has the same target. Description: flow cytometry on HCT116-TT3 cells. The source holds these as a separate data set.
With B1, the EC50 was 0.958 nM. Same read-out and setting: for B2 the value was 0.692 nM. The molecule B3 gave a concentration giving a half-maximal response (EC50) of 0.568 nM.

The target in the next assay is T1, CD3 on Jurkat cells and on human T cells (human, UniProt P07766 23-207).
T1 construct: whole, on cells; also called CD3 end; CD3 antigen
T1 sequence (P07766 23-207): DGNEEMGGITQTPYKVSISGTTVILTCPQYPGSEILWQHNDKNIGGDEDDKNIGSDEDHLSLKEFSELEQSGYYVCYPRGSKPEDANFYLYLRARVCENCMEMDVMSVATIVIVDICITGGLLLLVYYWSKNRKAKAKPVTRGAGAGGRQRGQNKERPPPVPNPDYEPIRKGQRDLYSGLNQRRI
Nature of the assay: flow cytometry on Jurkat cells.
Experimental: Jurkat cells were plated, washed with a FACS buffer, and centrifuged at 1200 rpm for 3-5 min. Then diluted antibodies with different concentrations were added at 100 L/well. The cells were incubated at 4° C. for 0.5 h, centrifuged at 1200 rpm for 3-5 min, and washed with a FACS buffer. Then a diluted goat anti-human IgG (FITC, Abcam/ab97224) antibody was added. The cells were incubated at 4° C. for 0.5 h, centrifuged at 1200 rpm for 3-5 min, washed with a FACS buffer, and resuspended in 50 μL of a FACs buffer, and assays were performed using a flow cytometer.
As for B4, the EC50 was 32.6 nM.

B5 had an EC50 of 143 nM. B6 came in with an EC50 of 80.6 nM. Still for that read-out and setting: the same measure for B7: 49.4 nM; for B8: 169 nM.

Broadly, the EC50 is the midpoint of the concentration-response curve. The low end stands for an effect from little substance, the high end for a need for much substance.
